The record followed here is publication PMC6447540.

In the test the target is SAV1 (UniProt Q9H4B6). In words: biotin-peptide pull-down from cell lysate. The following applies: reference: unphosphorylated Akt1 peptide; sites Y26.

Take “Akt1 PH domain peptide (from UniProt P31749) pY26 Akt1 peptide”: the “binding against the reference” value is “weaker”.
